# Experimental data published in the RNAGym collection of RNA variant scans (doi:10.7554/elife.90254).
# B1: LINE1-full (parent)
# chain: UACGUAGGUGGUUUUCCCCUGAUAGUGCUAAGGGGGCCUGGAAGUUUGGACUGGGCAGAGCUCAACACAGCGUGGCAAAGUGGCUGUGGCUAGACUGCCUCUCUGGAUUCCUCGUCACUCAGCAGGGCAUCUCUGAGAGAAAUGCC
# Variants of: B1
# Assay: self-cleavage, relative activity (ratio to wild type); higher = more cleavage; in vitro, sequencing; the parent is a self-cleaving ribozyme
row,Variant,self-cleavage
1,U13A A107G,1.11
2,U13A U109C,1.17
3,U12G U13C,0.95
4,U13C A69U,0.1
5,U13C G55C,0.25
6,U13A C56A,0.05
7,U13C C51U,0.97
8,U13G U45C,0.78
9,U13C U115C,1.53
10,U13C U115A,1.3
11,U13C G21A,0.94
12,U13C G21U,1
13,U13C C90U,0.04
14,U13G A67G,1.9
15,U13G A67U,0.13
16,U14A U26A,0.79
17,U13A A42G,1.26
18,U13C G36A,1.2
19,U13G U104A,1.39
20,U14C A79U,1.97
21,U13A U96C,0.1
22,U13C G35A,1.13
23,U13C G49A,0.88
24,U13A G82U,0.65

row,Variant,self-cleavage
1,U13G A129G,1.46
2,U13A U23C,1.62
3,U13C G75A,1.16
4,U13A A69U,0.01
5,U13A A69G,0.25
6,U13A A69C,0.08
7,U13A U26A,0.78
8,U13A U26C,1.19
9,U13G U132G,2.18
10,U12G G40A,1.41
11,U13C C98U,0.35
12,U13C C98G,0.15
13,U12G G32A,0.78
14,U13G U85A,0.06
15,U13C G139U,1.19
16,U14A U39C,0.95
17,U14A U39A,0.8
18,U13C A50U,0.83
19,U12G U91A,0.97
20,U12G U109C,1.57
21,U13C U45G,1.46
22,U14A U46A,0.86
23,U14A U46C,1.17
24,U13G,0.93

row,Variant,self-cleavage
1,U13C,1.15
2,U13A,0.98
3,U13A U47A,1.01
4,U13A U47G,0.38
5,U14A A67U,0.1
6,U13C U91C,0.99
7,U13C U91A,0.85
8,U13A C128U,1.61
9,U12G U96A,0.21
10,U13A A67U,0.07
11,U13A A67G,0.22
12,U13C A107G,1.39
13,U13C A107C,0.94
14,U13C G122U,1.02
15,U13C G122A,1.5
16,U13A A24G,0.53
17,U14A U96C,0.04
18,U12G U29C,1.02
19,U13C C145A,1.6
20,U13C U85A,0.13
21,U12G G55A,0.15
22,U12G G114A,1.07
23,U14A A31U,0.84
24,U14A A31G,0.89

row,Variant,self-cleavage
1,U13G A77U,1.31
2,U13C U130C,1.2
3,U13C U130A,1.6
4,U14A U132C,1.35
5,U12G U85C,0.4
6,U14A A43G,0.43
7,U13C A121U,1.26
8,U13C A121G,1.52
9,U13C A121C,1.34
10,U13G U47C,1.17
11,U14A U134A,0.81
12,U13A U46A,1.21
13,U12G G97U,0.07
14,U13A U73C,0.94
15,U13A U73A,1.04
16,U13A C118U,0.52
17,U13A A30U,0.7
18,U13A U132C,0.98
19,U13A U132A,0.87
20,U13A U132G,0.6
21,U12G U39C,1.61
22,U13G C113U,1.11
23,U14C A92G,0.14
24,U14A U45A,0.23

row,Variant,self-cleavage
1,U14A U45C,1.09
2,U14A U45G,0.77
3,U14A U73A,1.39
4,U14A C101A,1.42
5,U14C A65U,0.19
6,U13C C18U,1.57
7,U14C A42G,1.15
8,U13G U100A,0.77
9,U13C A124G,1.04
10,U14A U87C,0.12
11,U13C A30G,0.77
12,U13C U102A,1.73
13,U13C U102C,1.4
14,U13C A22U,1.22
15,U13A U14C,0.46
16,U13A U14A,1.14
17,U14A A77G,1.39
18,U13A G125U,1.03
19,U13A G125A,0.72
20,U14A U102A,0.99
21,U12G U143C,1.23
22,U14A G114A,0.83
23,U13A U91C,0.89
24,U14A U23C,1.44

row,Variant,self-cleavage
1,U13C U96G,0.06
2,U14A U62A,0.05
3,U13G A94G,0.37
4,U14A G70A,0.19
5,U13A C71G,0.2
6,U13C U23C,0.41
7,U13C A142U,1.09
8,U13C A24U,1.11
9,U13C G53U,1.11
10,U13C G53C,2.02
11,U13C U87G,0.21
12,U13C A31U,1.1
13,U13G A69U,0.39
14,U14A A50G,1.25
15,U13C U15C,1.03
16,U12G U47C,1.04
17,U13A C111U,0.89
18,U13A G40A,1.19
19,U13C G105A,1.33
20,U14C A57U,0.06
21,U13C G97A,0.08
22,U13A U62C,0.03
23,U13A U62A,0.06
24,U13C U62G,0

row,Variant,self-cleavage
1,U13C U62C,0.09
2,U13C U62A,0.12
3,U13C C71A,0.24
4,U13C C71U,0.58
5,U13C G40A,0.91
6,U13C G40U,1.87
7,U12G U132C,1.02
8,U12G U132A,0.66
9,U13C C110U,1.43
10,U13C U20C,1.06
11,U13C U20G,0.69
12,U12G U20C,1.02
13,U14A U119A,1.02
14,U14A A141G,1
15,U14A A140G,0.91
16,U14A A140U,1.43
17,U14C A69G,0.6
18,U13A A78U,1.52
19,U14A A136C,1.78
20,U14A A136G,0.97
21,U13C A67G,0.71
22,U13C C17U,1.19
23,U12G G80A,1.64
